Laboratory results from patent US20030096355A1 (published 2003).

Columns and labels:
[1] = target: T1, murine TNFα (amino acids 82-233, Genbank accession no. CAA68530) (murine, UniProt P06804 82-233); assay: SPR, Biacore 2000, 25° C; ymkz5-receptor immobilized on CM5 chip, ligand injected
T1 construct: range 82-233; Expressed in E. coli
T1 sequence (looked up): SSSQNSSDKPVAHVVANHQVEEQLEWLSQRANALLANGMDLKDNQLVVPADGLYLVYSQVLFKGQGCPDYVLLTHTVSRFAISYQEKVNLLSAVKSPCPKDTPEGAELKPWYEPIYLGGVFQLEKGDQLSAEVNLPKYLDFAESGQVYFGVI
Method: (§1) Binding studies were performed to determine if various TNF ligand family members are ligands for the ymkz5-receptor. The only TNF ligand which bound to the ymkz5-receptor was murine TRAIL. The binding studies, based on surface plasmon resonance, were carried out with the automated, high throughput Biacore 2000 system at 25° C. according to the manufacturer's instructions (Biacore, Uppsula, Sweden) as follows:
(§2) The receptor was immobilized on a CM5 research grade amine coupling chip (Biacore) by placing 40 μg/ml of recombinant ymkz5-receptor diluted in HEPES buffered saline (HBS-P; Biacore) at pH 4.5 on the chip. The ligands were diluted in HSP-B buffer containing 10 μg/ml BSA and 4 mg/ml dextran to block nonspecific binding sites. The ligand samples were injected over the receptors at concentrations ranging from 2 nM to 100 nM. The chips were regenerated between ligand injections by washing 2 times for 3 minutes in 25 mM CAPS, 1 M NaCl pH 10.5.
(§3) The TNF ligands tested were: human flag TRAIL (amino acids 95-281, Genbank accession no. AAC50332), murine flag TRAIL (amino acids 99-291, Genbank accession no. NP 033451), murine Fc TRAIL, human OPGL ligand (amino acids 159-318), murine OPGL ligand (amino acids 159-316), human TNFα (amino acids 82-233, Genbank accession no. CAA26669), and murine TNFα (amino acids 82-233, Genbank accession no. CAA68530). The extracellular and […] portions of the ligands were recombinantly expressed in E.coli. Specifically, the denoted amino acids for each ligand indicate the portion of the ligand expressed recombinantly. Additionally, commercially available human Fas ligand (Alexis Biochemicals, San Diego, Calif.) was also tested.. Human DR5Fc, a known TRAIL receptor, was used as a control. Results of the assay were determined by detecting the change in mass on the chip as measured by changes in […] on the chip as indicated as resonance units.

[2] = target: T2, human Fas ligand (Alexis Biochemicals) (human, UniProt P48023 103-281, limits assumed); assay: as above
T2 construct: Bought; construct not described
T2 sequence (looked up): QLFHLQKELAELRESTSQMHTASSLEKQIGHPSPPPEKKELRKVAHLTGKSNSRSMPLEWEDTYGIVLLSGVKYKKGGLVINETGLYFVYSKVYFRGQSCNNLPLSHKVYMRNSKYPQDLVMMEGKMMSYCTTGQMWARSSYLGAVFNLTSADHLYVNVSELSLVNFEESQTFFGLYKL
Method: as §1, §2, §3

[3] = target: T3, human flag TRAIL (amino acids 95-281, Genbank accession no. AAC50332) (human, UniProt P50591 95-281); assay: as above
T3 construct: range 95-281; Expressed in E. coli; not shown: flag tag
Method: as §1, §2, §3

[4] = target: T4, human OPGL ligand (amino acids 159-318) (human, UniProt O14788 159-317); assay: as above
T4 construct: range 159-318; Expressed in E. coli; The printed range may run past the end of the UniProt entry
T4 sequence (looked up): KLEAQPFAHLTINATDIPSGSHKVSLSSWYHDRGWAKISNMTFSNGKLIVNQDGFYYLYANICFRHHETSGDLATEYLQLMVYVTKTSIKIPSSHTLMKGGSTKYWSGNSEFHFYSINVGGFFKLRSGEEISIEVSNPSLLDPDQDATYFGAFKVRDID
Method: as §1, §2, §3

[5] = target: T5, murine OPGL ligand (amino acids 159-316) (murine, UniProt O35235 159-316); assay: as above
T5 construct: range 159-316; Expressed in E. coli
T5 sequence (looked up): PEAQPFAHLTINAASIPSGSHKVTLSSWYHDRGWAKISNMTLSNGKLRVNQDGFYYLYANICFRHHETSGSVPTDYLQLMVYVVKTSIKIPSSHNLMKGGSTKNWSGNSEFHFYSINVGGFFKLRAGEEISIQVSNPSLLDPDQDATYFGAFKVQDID
Method: as §1, §2, §3

[6] = target: T6, human TNFα (amino acids 82-233, Genbank accession no. CAA26669) (human, UniProt P01375 82-233); assay: as above
T6 construct: range 82-233; Expressed in E. coli
Method: as §1, §2, §3

active murine TRAIL = target: T7, active murine TRAIL (murine, UniProt P50592 99-291); assay: SPR, Biacore 2000, 25° C; ymkz5-receptor amine-coupled on CM5 chip, ligand injected at 2 nM to 100 nM; receptor on the chip; active (bioactive) murine TRAIL as ligand
T7 construct: The result is told only for 'active murine TRAIL which was bioactive in cell culture assays'; The construct (flag-tagged 99-291 or Fc fusion) is not tied to the KD; also called murine flag TRAIL; murine Fc TRAIL
T7 sequence (looked up): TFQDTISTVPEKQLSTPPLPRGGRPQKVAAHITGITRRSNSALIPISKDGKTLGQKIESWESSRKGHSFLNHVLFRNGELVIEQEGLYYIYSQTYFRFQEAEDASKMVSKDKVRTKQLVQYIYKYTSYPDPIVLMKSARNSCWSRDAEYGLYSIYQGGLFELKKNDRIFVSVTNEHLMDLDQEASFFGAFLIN
Method: as §1
The receptor was immobilized on a CM5 research grade amine coupling chip (Biacore) by placing 40 μg/ml of recombinant ymkz5-receptor diluted in HEPES buffered saline (HBS-P; Biacore) at pH 4.5 on the chip. The ligands were diluted in HSP-B buffer containing 10 μg/ml BSA and 4 mg/ml dextran to block nonspecific binding sites. […]
The TNF ligands tested were: human flag TRAIL (amino acids 95-281, Genbank accession no. AAC50332), murine flag TRAIL (amino acids 99-291, Genbank accession no. NP 033451), murine Fc TRAIL, human OPGL ligand (amino acids 159-318), murine OPGL ligand (amino acids 159-316), human TNFα (amino acids 82-233, Genbank accession no. CAA26669), and murine TNFα (amino acids 82-233, Genbank accession no. CAA68530). […] Results of the assay were determined by detecting the change in mass on the chip as measured by changes in […] on the chip as indicated as resonance units.

T3 sequence (P50591 95-281 limits assumed): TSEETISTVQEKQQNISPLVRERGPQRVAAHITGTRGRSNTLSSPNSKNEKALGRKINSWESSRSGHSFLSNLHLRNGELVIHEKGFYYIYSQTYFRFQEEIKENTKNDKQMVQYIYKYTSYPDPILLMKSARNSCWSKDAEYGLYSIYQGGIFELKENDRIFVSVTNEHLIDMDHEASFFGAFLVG
T6 sequence (P01375 82-233 limits assumed): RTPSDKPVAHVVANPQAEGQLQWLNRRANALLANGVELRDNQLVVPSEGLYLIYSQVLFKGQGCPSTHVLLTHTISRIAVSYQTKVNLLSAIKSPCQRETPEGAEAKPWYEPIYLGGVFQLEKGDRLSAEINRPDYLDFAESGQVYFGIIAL

- binding result [1]: no binding
- binding result [2]: no binding
- binding result [3]: no binding
- binding result [4]: no binding
- binding result [5]: no binding
- binding result [6]: no binding
- Kd (active murine TRAIL): 20.8 nM
B1: recombinant ymkz5-receptor (receptor)
chain: MPESYSFNCPDGEYQSNDVCCKTCPSGTFVKAPCKIPHTQGQCEKCHPGTFTGKDNGLHDCELCSTCDKDQNMVADCSATSDRKCECQIGLYYYDPKFPESCRPCTKCPQGIPVLQECNSTANTVC
